# Laboratory results: IntAct's records for PubMed 22797597
# B1: TRAF2 and NCK-interacting protein kinase (Homo sapiens), Q9UKE5 (parent)
# chain: MASDSPARSLDEIDLSALRDPAGIFELVELVGNGTYGQVYKGRHVKTGQLAAIKVMDVTGDEEEEIKQEINMLKKYSHHRNIATYYGAFIKKNPPGMDDQLWLVMEFCGAGSVTDLIKNTKGNTLKEEWIAYICREILRGLSHLHQHKVIHRDIKGQNVLLTENAEVKLVDFGVSAQLDRTVGRRNTFIGTPYWMAPEVIACDENPDATYDFKSDLWSLGITAIEMAEGAPPLCDMHPMRALFLIPRNPAPRLKSKKWSKKFQSFIESCLVKNHSQRPATEQLMKHPFIRDQPNERQVRIQLKDHIDRTKKKRGEKDETEYEYSGSEEEEEENDSGEPSSILNLPGESTLRRDFLRLQLANKERSEALRRQQLEQQQRENEEHKRQLLAERQKRIEEQKEQRRRLEEQQRREKELRKQQEREQRRHYEEQMRREEERRRAEHEQEYIRRQLEEEQRQLEILQQQLLHEQALLLEYKRKQLEEQRQAERLQRQLKQERDYLVSLQHQRQEQRPVEKKPLYHYKEGMSPSEKPAWAKEVEERSRLNRQSSPAMPHKVANRISDPNLPPRSESFSISGVQPARTPPMLRPVDPQIPHLVAVKSQGPALTASQSVHEQPTKGLSGFQEALNVTSHRVEMPRQNSDPTSENPPLPTRIEKFDRSSWLRQEEDIPPKVPQRTTSISPALARKNSPGNGSALGPRLGSQPIRASNPDLRRTEPILESPLQRTSSGSSSSSSTPSSQPSSQGGSQPGSQAGSSERTRVRANSKSEGSPVLPHEPAKVKPEESRDITRPSRPASYKKAIDEDLTALAKELRELRIEETNRPMKKVTDYSSSSEESESSEEEEEDGESETHDGTVAVSDIPRLIPTGAPGSNEQYNVGMVGTHGLETSHADSFSGSISREGTLMIRETSGEKKRSGHSDSNGFAGHINLPDLVQQSHSPAGTPTEGLGRVSTHSQEMDSGTEYGMGSSTKASFTPFVDPRVYQTSPTDEDEEDEESSAAALFTSELLRQEQAKLNEARKISVVNVNPTNIRPHSDTPEIRKYKKRFNSEILCAALWGVNLLVGTENGLMLLDRSGQGKVYNLINRRRFQQMDVLEGLNVLVTISGKKNKLRVYYLSWLRNRILHNDPEVEKKQGWITVGDLEGCIHYKVVKYERIKFLVIALKNAVEIYAWAPKPYHKFMAFKSFADLQHKPLLVDLTVEEGQRLKVIFGSHTGFHVIDVDSGNSYDIYIPSHIQGNITPHAIVILPKTDGMEMLVCYEDEGVYVNTYGRITKDVVLQWGEMPTSVAYIHSNQIMGWGEKAIEIRSVETGHLDGVFMHKRAQRLKFLCERNDKVFFASVRSGGSSQVFFMTLNRNSMMNW
# Variants of: B1
# Settings: with STK26, Q9P289-1
# Sequence of STK26, Q9P289-1 (Q9P289 whole entry, looked up): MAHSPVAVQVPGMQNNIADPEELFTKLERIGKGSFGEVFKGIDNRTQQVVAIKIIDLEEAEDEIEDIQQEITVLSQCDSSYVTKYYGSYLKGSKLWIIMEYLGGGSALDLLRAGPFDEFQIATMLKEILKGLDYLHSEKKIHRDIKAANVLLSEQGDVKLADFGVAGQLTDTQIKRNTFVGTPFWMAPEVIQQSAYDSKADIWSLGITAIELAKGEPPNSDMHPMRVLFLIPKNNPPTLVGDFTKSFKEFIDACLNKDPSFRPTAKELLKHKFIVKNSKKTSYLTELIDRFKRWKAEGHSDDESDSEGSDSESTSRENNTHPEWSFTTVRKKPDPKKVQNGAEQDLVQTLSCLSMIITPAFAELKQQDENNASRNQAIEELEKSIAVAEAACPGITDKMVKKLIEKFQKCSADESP
row,Variant,effect of a mutation on the interaction
1,R152A;D153A,increasing interaction strength
2,K54A,increasing interaction strength
